Assay results: patent US11026999B2, “Insulin glargine/lixisenatide fixed ratio formulation” (SANOFI-AVENTIS DEUTSCHLAND GMBH, priority 2013, dated 2021)

Test system: type 2 diabetic patients
Assay: Treatment-emergent adverse events, SAEs, deaths, TEAEs leading to withdrawal (Example 1)
Conditions: Safety population
Experimental: Safety: The safety analysis was conducted on the safety population, defined as all randomized patients who received at least one dose of IMP (regardless of the amount of treatment administered). The evaluation of AEs, laboratory, vital sign, and ECG data was descriptive.

## Gly(A21)-Arg(B31)-Arg(B32)-human insulin [Insulin Glargine]
PT
  TEAE leading to permanent treatment discontinuation: Confusional state: 0 n (%)
  TEAE leading to permanent treatment discontinuation: Dizziness: 0 n (%)
  TEAE leading to permanent treatment discontinuation: Headache: 0 n (%)
  TEAE leading to permanent treatment discontinuation: Nausea: 0 n (%)
  TEAE leading to permanent treatment discontinuation: Ovarian cancer: 0 n (%)
  TEAE leading to permanent treatment discontinuation: Vomiting: 0 n (%)
  TEAE: Abdominal distension: 2 (1.2%) n (%)
  TEAE: Arthralgia: 3 (1.9%) n (%)
  TEAE: Asthenia: 0 n (%)
  TEAE: Atrial fibrillation: 1 (0.6%) n (%)
  TEAE: Back pain: 2 (1.2%) n (%)
  TEAE: Bronchitis: 1 (0.6%) n (%)
  TEAE: Conjunctivitis: 2 (1.2%) n (%)
  TEAE: Constipation: 0 n (%)
  TEAE: Contusion: 2 (1.2%) n (%)
  TEAE: Cough: 0 n (%)
  TEAE: Cystitis: 2 (1.2%) n (%)
  TEAE: Decreased appetite: 0 n (%)
  TEAE: Depression: 2 (1.2%) n (%)
  TEAE: Diabetic neuropathy: 2 (1.2%) n (%)
  TEAE: Diarrhoea: 6 (3.7%) n (%)
  TEAE: Dizziness: 1 (0.6%) n (%)
  TEAE: Dyspepsia: 1 (0.6%) n (%)
  TEAE: Fatigue: 0 n (%)
  TEAE: Gastroenteritis: 1 (0.6%) n (%)
  TEAE: Headache: 12 (7.4%) n (%)
  TEAE: Hypertension: 2 (1.2%) n (%)
  TEAE: Hypertriglyceridaemia: 0 n (%)
  TEAE: Influenza: 6 (3.7%) n (%)
  TEAE: Injection site pruritus: 0 n (%)
  TEAE: Insomnia: 0 n (%)
  TEAE: Intervertebral disc disorder: 2 (1.2%) n (%)
  TEAE: Laceration: 3 (1.9%) n (%)
  TEAE: Lipase increased: 1 (0.6%) n (%)
  TEAE: Musculoskeletal pain: 1 (0.6%) n (%)
  TEAE: Nasopharyngitis: 9 (5.6%) n (%)
  TEAE: Nausea: 0 n (%)
  TEAE: Nepbrolithiasis: 2 (1.2%) n (%)
  TEAE: Oedema: 2 (1.2%) n (%)
  TEAE: Osteoarthritis: 2 (1.2%) n (%)
  TEAE: Pain in extremity: 0 n (%)
  TEAE: Presyncope: 2 (1.2%) n (%)
  TEAE: Rhinitis: 2 (1.2%) n (%)
  TEAE: Sciatica: 2 (1.2%) n (%)
  TEAE: Sinusitis: 3 (1.9%) n (%)
  TEAE: Tinnitus: 2 (1.2%) n (%)
  TEAE: Tooth abscess: 2 (1.2%) n (%)
  TEAE: Vomiting: 1 (0.6%) n (%)
  Treatment emergent SAE: Angina pectoris: 0 n (%)
  Treatment emergent SAE: Angina unstable: 0 n (%)
  Treatment emergent SAE: Atrial fibrillation: 1 (0.6%) n (%)
  Treatment emergent SAE: Bradycardia: 0 n (%)
  Treatment emergent SAE: Calculus ureteric: 0 n (%)
  Treatment emergent SAE: Cellulitis: 0 n (%)
  Treatment emergent SAE: Depression: 1 (0.6%) n (%)
  Treatment emergent SAE: Diabetic neuropathy: 0 n (%)
  Treatment emergent SAE: ECG signs of myocardial ischaemia: 1 (0.6%) n (%)
  Treatment emergent SAE: Intervertebral disc protrusion: 0 n (%)
  Treatment emergent SAE: Osteoarthritis: 1 (0.6%) n (%)
  Treatment emergent SAE: Ovarian cancer: 0 n (%)
  Treatment emergent SAE: Pain in extremity: 0 n (%)
  Treatment emergent SAE: Presyncope: 1 (0.6%) n (%)
  Treatment emergent SAE: Radius fracture: 0 n (%)
  Treatment emergent SAE: Sciatica: 0 n (%)
PT, adjudicated as not allergic event by ARAC
  TEAE leading to permanent treatment discontinuation: Hypersensitivity: 0 n (%)
SOC
  TEAE leading to permanent treatment discontinuation: Gastrointestinal disorders: 0 n (%)
  TEAE leading to permanent treatment discontinuation: Immune system disorders: 0 n (%)
  TEAE leading to permanent treatment discontinuation: Neoplasms benign, malignant and unspecified (incl cysts and polyps): 0 n (%)
  TEAE leading to permanent treatment discontinuation: Nervous system disorders: 0 n (%)
  TEAE leading to permanent treatment discontinuation: Psychiatric disorders: 0 n (%)
  TEAE: Cardiac disorders: 1 (0.6%) n (%)
  TEAE: Ear and labyrinth disorders: 2 (1.2%) n (%)
  TEAE: Eye disorders: 7 (4.3%) n (%)
  TEAE: Gastrointestinal disorders: 15 (9.3%) n (%)
  TEAE: General disorders and administration site conditions: 5 (3.1%) n (%)
  TEAE: Injury, poisoning and procedural complications: 11 (6.8%) n (%)
  TEAE: Investigations: 5 (3.1%) n (%)
  TEAE: Metabolism and nutrition disorders: 1 (0.6%) n (%)
  TEAE: Musculoskeletal and connective tissue disorders: 13 (8.0%) n (%)
  TEAE: Nervous system disorders: 20 (12.3%) n (%)
  TEAE: Psychiatric disorders: 2 (1.2%) n (%)
  TEAE: Renal and urinary disorders: 2 (1.2%) n (%)
  TEAE: Respiratory, thoracic and mediastinal disorders: 4 (2.5%) n (%)
  TEAE: Vascular disorders: 3 (1.9%) n (%)
  Treatment emergent SAE: Cardiac disorders: 1 (0.6%) n (%)
  Treatment emergent SAE: Injury, poisoning and procedural complications: 0 n (%)
  Treatment emergent SAE: Investigations: 1 (0.6%) n (%)
  Treatment emergent SAE: Musculoskeletal and connective tissue disorders: 1 (0.6%) n (%)
  Treatment emergent SAE: Neoplasms benign, malignant and unspecified (incl cysts and polyps): 0 n (%)
  Treatment emergent SAE: Nervous system disorders: 1 (0.6%) n (%)
  Treatment emergent SAE: Psychiatric disorders: 1 (0.6%) n (%)
  Treatment emergent SAE: Renal and urinary disorders: 0 n (%)
  Patients with any TEAE: 82 (50.6%) n (%)
  Patients with any TEAE leading to death: 0 n (%)
  Patients with any TEAE leading to permanent treatment discontinuation: 0 n (%)
  Patients with any treatment emergent SAE: 6 (3.7%) n (%)
  TEAE leading to permanent treatment discontinuation: HLGT: Allergic conditions: 0 n (%)
  TEAE leading to permanent treatment discontinuation: HLGT: Deliria (incl confusion): 0 n (%)
  TEAE leading to permanent treatment discontinuation: HLGT: Gastrointestinal signs and symptoms: 0 n (%)
  TEAE leading to permanent treatment discontinuation: HLGT: Headaches: 0 n (%)
  TEAE leading to permanent treatment discontinuation: HLGT: Neurological disorders NEC: 0 n (%)
  TEAE leading to permanent treatment discontinuation: HLGT: Reproductive neoplasms female malignant and unspecified: 0 n (%)
  TEAE leading to permanent treatment discontinuation: HLT: Allergic conditions NEC: 0 n (%)
  TEAE leading to permanent treatment discontinuation: HLT: Confusion and disorientation: 0 n (%)
  TEAE leading to permanent treatment discontinuation: HLT: Headaches NEC: 0 n (%)
  TEAE leading to permanent treatment discontinuation: HLT: Nausea and vomiting symptoms: 0 n (%)
  TEAE leading to permanent treatment discontinuation: HLT: Neurological signs and symptoms NEC: 0 n (%)
  TEAE leading to permanent treatment discontinuation: HLT: Ovarian neoplasms malignant (excl germ cell): 0 n (%)
  TEAE: HLGT: Administration site reactions: 1 (0.6%) n (%)
  TEAE: HLGT: Appetite and general nutritional disorders: 1 (0.6%) n (%)
  TEAE: HLGT: Cardiac arrhythmias: 1 (0.6%) n (%)
  TEAE: HLGT: Depressed mood disorders and disturbances: 2 (1.2%) n (%)
  TEAE: HLGT: Gastrointestinal investigations: 2 (1.2%) n (%)
  TEAE: HLGT: Gastrointestinal motility and defaecation conditions: 7 (4.3%) n (%)
  TEAE: HLGT: Gastrointestinal signs and symptoms: 7 (4.3%) n (%)
  TEAE: HLGT: General system disorders NEC: 4 (2.5%) n (%)
  TEAE: HLGT: Headaches: 13 (8.0%) n (%)
  TEAE: HLGT: Injuries NEC: 9 (5.6%) n (%)
  TEAE: HLGT: Inner ear and VIIIth cranial nerve disorders: 2 (1.2%) n (%)
  TEAE: HLGT: Joint disorders: 6 (3.7%) n (%)
  TEAE: HLGT: Lipid metabolism disorders: 0 n (%)
  TEAE: HLGT: Musculoskeletal and connective tissue deformities (incl intervertebral disc disorders): 2 (1.2%) n (%)
  TEAE: HLGT: Musculoskeletal and connective tissue disorders NEC: 3 (1.9%) n (%)
  TEAE: HLGT: Neurological disorders NEC: 5 (3.1%) n (%)
  TEAE: HLGT: Peripheral neuropathies: 2 (1.2%) n (%)
  TEAE: HLGT: Respiratory disorders NEC: 2 (1.2%) n (%)
  TEAE: HLGT: Sleep disorders and disturbances: 0 n (%)
  TEAE: HLGT: Spinal cord and nerve root disorders: 2 (1.2%) n (%)
  TEAE: HLGT: Urolithiases: 2 (1.2%) n (%)
  TEAE: HLGT: Vascular hypertensive disorders: 2 (1.2%) n (%)
  TEAE: HLT: Appetite disorders: 1 (0.6%) n (%)
  TEAE: HLT: Asthenic conditions: 0 n (%)
  TEAE: HLT: Chronic polyneuropathies: 2 (1.2%) n (%)
  TEAE: HLT: Coughing and associated symptoms: 0 n (%)
  TEAE: HLT: Depressive disorders: 2 (1.2%) n (%)
  TEAE: HLT: Digestive enzymes: 2 (1.2%) n (%)
  TEAE: HLT: Disturbances in initiating and maintaining sleep: 0 n (%)
  TEAE: HLT: Dyspeptic signs and symptoms: 1 (0.6%) n (%)
  TEAE: HLT: Elevated triglycerides: 0 n (%)
  TEAE: HLT: Flatulence, bloating and distension: 2 (1.2%) n (%)
  TEAE: HLT: Gastrointestinal atonic and hypomotility disorders NEC: 1 (0.6%) n (%)
  TEAE: HLT: Headaches NEC: 12 (7.4%) n (%)
  TEAE: HLT: Influenza viral infections: 6 (3.7%) n (%)
  TEAE: HLT: Injection site reactions: 1 (0.6%) n (%)
  TEAE: HLT: Inner ear signs and symptoms: 2 (1.2%) n (%)
  TEAE: HLT: Intervertebral disc disorders NEC: 2 (1.2%) n (%)
  TEAE: HLT: Joint related signs and symptoms: 3 (1.9%) n (%)
  TEAE: HLT: Lower respiratory tract and lung infections: 1 (0.6%) n (%)
  TEAE: HLT: Lumbar spinal cord and nerve root disorders: 2 (1.2%) n (%)
  TEAE: HLT: Musculoskeletal and connective tissue pain and discomfort: 3 (1.9%) n (%)
  TEAE: HLT: Nausea and vomiting symptoms: 1 (0.6%) n (%)
  TEAE: HLT: Neurological signs and symptoms NEC: 3 (1.9%) n (%)
  TEAE: HLT: Oedema NBC: 3 (1.9%) n (%)
  TEAE: HLT: Osteoarthropathies: 2 (1.2%) n (%)
  TEAE: HLT: Renal lithiasis: 2 (1.2%) n (%)
  TEAE: HLT: Skin injuries NEC: 5 (3.1%) n (%)
  TEAE: HLT: Supraventricular arrhythmias: 1 (0.6%) n (%)
  TEAE: HLT: Vascular hypertensive disorders NEC: 2 (1.2%) n (%)
  Treatment emergent SAE: HLGT: Bacterial infectious disorders: 0 n (%)
  Treatment emergent SAE: HLGT: Bone and joint injuries: 0 n (%)
  Treatment emergent SAE: HLGT: Cardiac and vascular investigations (excl enzyme tests): 1 (0.6%) n (%)
  Treatment emergent SAE: HLGT: Cardiac arrhythmias: 1 (0.6%) n (%)
  Treatment emergent SAE: HLGT: Coronary artery disorders: 0 n (%)
  Treatment emergent SAE: HLGT: Depressed mood disorders and disturbances: 1 (0.6%) n (%)
  Treatment emergent SAE: HLGT: Joint disorders: 1 (0.6%) n (%)
  Treatment emergent SAE: HLGT: Musculoskeletal and connective tissue deformities (incl intervertebral disc disorders): 0 n (%)
  Treatment emergent SAE: HLGT: Musculoskeletal and connective tissue disorders NEC: 0 n (%)
  Treatment emergent SAE: HLGT: Neurological disorders NEC: 1 (0.6%) n (%)
  Treatment emergent SAE: HLGT: Peripheral neuropathies: 0 n (%)
  Treatment emergent SAE: HLGT: Reproductive neoplasms female malignant and unspecified: 0 n (%)
  Treatment emergent SAE: HLGT: Spinal cord and nerve root disorders: 0 n (%)
  Treatment emergent SAE: HLGT: Urolithiases: 0 n (%)
  Treatment emergent SAE: HLT: Bacterial infections NEC: 0 n (%)
  Treatment emergent SAE: HLT: Chronic polyneuropathies: 0 n (%)
  Treatment emergent SAE: HLT: Depressive disorders: 1 (0.6%) n (%)
  Treatment emergent SAE: HLT: ECG investigations: 1 (0.6%) n (%)
  Treatment emergent SAE: HLT: Intervertebral disc disorders NEC: 0 n (%)
  Treatment emergent SAE: HLT: Ischaemic coronary artery disorders: 0 n (%)
  Treatment emergent SAE: HLT: Lumbar spinal cord and nerve root disorders: 0 n (%)
  Treatment emergent SAE: HLT: Musculoskeletal and connective tissue pain and discomfort: 0 n (%)
  Treatment emergent SAE: HLT: Neurological signs and symptoms NEC: 1 (0.6%) n (%)
  Treatment emergent SAE: HLT: Osteoarthropathies: 1 (0.6%) n (%)
  Treatment emergent SAE: HLT: Ovarian neoplasms malignant (excl germ cell): 0 n (%)
  Treatment emergent SAE: HLT: Rate and rhythm disorders NEC: 0 n (%)
  Treatment emergent SAE: HLT: Supraventricular arrhythmias: 1 (0.6%) n (%)
  Treatment emergent SAE: HLT: Upper limb fractures and dislocations: 0 n (%)
  Treatment emergent SAE: HLT: Urinary tract lithiasis (excl renal): 0 n (%)
Listed as insulin glargine
  Patients with any TEAE leading to permanent treatment discontinuation: none
  Patients with any treatment emergent SAE: 6 (3.7%) n (%)
